This passage reports peptide exchange yield results from patent US20200087364A1 (IMMATICS BIOTECHNOLOGIES, published 2020).

Where only a bound is given, the exact number is not on record here.

The target of this assay is T1, HLA-A*01:01 (human).
T1 construct: MHC class I monomer first loaded with a UV-sensitive peptide (not identified) that is cleaved by UV irradiation and exchanged for the tested peptide; captured on streptavidin plates, detected with anti-β2m; also called peptide-receptive MHC molecules
As to the kind of experiment: UV-ligand exchange, anti-b2m ELISA. The method, boiled down:
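Peptide–MHC complexes made by UV-ligand exchange of a UV-cleavable peptide; exchange yield measured by ELISA on streptavidin-coated plates, samples diluted 100-fold, 1 h 37 °C. Detection with 2 ug/ml HRP anti-β2m, TMB, A450; refolded HLA-A*02:01/MLA-001 monomer standards 15-500 ng/ml.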
On the technique in general: In an ELISA, binding on a coated surface is turned into a signal by an enzyme label.
VACGNNPVY: the peptide exchange yield was 50 to 75%.
As for ETSFSTSHY, the figure is > 75%; as for EVDIHTIHY, 50 to 75%.
To HSDLLEDSKY belongs 50 to 75%; to IPSFNEMVY, 20 to 50%; to ITDEDEDMLSY, 50 to 75%.
To ARDPITFSF belongs 20 to 50%; to RIEAIRAEY, 20 to 50%; to YLENSASWY, > 75%.
Regarding QVPLDCVLY, the peptide exchange yield was 20 to 50%.
YYYDTHTNTY gave a peptide exchange yield of 10 to 20%.
To FTDYELKAY belongs > 75%.
Consider NLDPNKIY, for which the peptide exchange yield lay within 10 to 20%.
To TSDQLGYSY belongs 50 to 75%.
As for NVDQNQNSY, the figure is 50 to 75%.
To QSLPEFGLTYY belongs 20 to 50%; to TSEISQNALMY, > 75%.
The molecule GSNPARYEF yielded a peptide exchange yield of 20 to 50%.
As for NSALNPLLY, the figure is > 75%; as for YTAHVGYSMY, > 75%.
To MTEKFLFLY belongs > 75%.
As for ASDVDTLLK, the peptide exchange yield was in the range of 50 to 75%.
To VSELVTTGHY belongs 50 to 75%; to SLIIDDTEY, 20 to 50%; to EMEQQSQEY, > 75%.
For KSWSQSSSLMY, the peptide exchange yield is 50 to 75%.
Molecule VTEYAEEIYQY gave a peptide exchange yield of 50 to 75%.
To YTELVEEKY belongs 50 to 75%; to TAKAPSTEY, 20 to 50%; to LMEKEDYHSLY, 50 to 75%.
As for LPDPNVQKY, the figure is 20 to 50%; as for LTDSTTRTTY, 50 to 75%.
In turn, QVWGGQPVY displayed a peptide exchange yield of 10 to 20%.
As for TTQDELLVY, the figure is 50 to 75%; as for GSFSIQHTY, 20 to 50%; as for WSQSSSLMY, > 75%.
To ASDPASSTSCY belongs 50 to 75%; to ILKGGSGTY, 20 to 50%.
To RFRSITQSYY belongs 10 to 20%; to FTDSQGNDIK, 50 to 75%.
Consider TSEISQNALMYY, for which the peptide exchange yield was 50 to 75%.
As to NSAINPLIY, the peptide exchange yield was > 75%.
Turning to YEPATMEQY, the peptide exchange yield is 20 to 50%.
To YLEDRPLSQLY belongs > 75%; to ATEGDVLNY, 50 to 75%; to STDSASYY, > 75%.
Turning to SSDIVALGGFLY, the peptide exchange yield is 50 to 75%.
To RSDPGGGGLAYAAY belongs > 75%; to SANALILTY, 20 to 50%; to MTSTEQSLYY, 50 to 75%.
In the case of ETEPERHLGSY, the peptide exchange yield was in the range of 50 to 75%.
TQHFVQENY: the peptide exchange yield was in the range of 20 to 50%.
To STEERRLNY belongs 50 to 75%; to EDDEDEDLY, 50 to 75%.
Consider ASDDVRIEVGLY, for which the peptide exchange yield was > 75%.
To ASSLDSLHY belongs > 75%.
To QSLPEFGLTY belongs 20 to 50%; to VTDSTTKIAY, 50 to 75%.
Take PPDHAVGRTKY: the peptide exchange yield fell in the range of 20 to 50%.
As for SSDFDPLVY, the figure is > 75%.
As for YADPSANRDLL, the figure is 20 to 50%.
As for FMVIAGMPLFY, the figure is 50 to 75%; as for YYDLVESTF, 10 to 20%; as for WSDGVPLLY, > 75%.
As to FSEPFHLIVSY, the peptide exchange yield is > 75%.
As for FTTQDELLVY, the figure is 50 to 75%.
